In US20220025032A1 (Novartis, published 2022):

Legend:
[1] = biological target: T1, Human BTC (human, UniProt P35070 32-111); assay: inhibition of BTC binding to ErbB1; y axis MSD units, x axis Fab (pM); blocked partner ErbB1
T1 construct: Soluble human BTC of the Biacore, ELISA, MSD and cell assays; also called human betacellulin; soluble human BTC
T1 sequence: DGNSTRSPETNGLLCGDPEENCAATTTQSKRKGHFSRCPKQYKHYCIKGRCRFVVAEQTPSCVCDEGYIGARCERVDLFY

[2] = biological target: T2, Human VEGF165 (human, UniProt P15692 27-191); assay: competition ELISA: antibody pre-incubated with VEGF-biotin, added to coated VEGFR2
T2 construct: mature; biotinylated in the VEGFR2 ELISAs; also called human VEGF-A; VEGF-A
T2 sequence (P15692 other isoform, or with tags, fused parts or gaps): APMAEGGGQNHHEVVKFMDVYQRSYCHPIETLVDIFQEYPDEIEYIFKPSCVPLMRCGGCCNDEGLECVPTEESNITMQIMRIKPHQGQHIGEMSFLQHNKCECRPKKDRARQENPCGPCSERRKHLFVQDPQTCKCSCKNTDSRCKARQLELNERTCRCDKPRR
Procedure: The plates were then washed 3 times using 1λTBST. The plates were blocked in 2% BSA diluent (0.1% Tween 20/0.1% TirtonX100) overnight. After blocking, the plates were washed 3 times using TB ST and then the sample mixture was added at 20 μl/well. The sample mixture consisted a final fixed concentration of VEGF-biotin (in-house) at 400 pM and a 15 point 1:2 serial dilution of the antibody starting at 20 nM. The sample mixture was pre-incubated for 1 hour prior to adding to the plate and then incubated for another hour at room temperature on the plate. Afterwards, the plate was washed 3 times using TBST and 20 μl/well of Streptavidin-HRP diluted at 1:5000 was added for an incubation time of 1 hour. The plates were washed 3 times in TBST and then 20 μl/well of TMB substrate was added. TMB is a chromogen that yields a blue color when oxidized. TMB was incubated for 10 minutes until the signal saturated in the no antibody samples, and then 10 μl/well of 2N sulfuric acid was added which then changes the blue color to yellow and this now has a maximum absorbance at 450 nm.

[3] = biological target: T1, Human BTC; assay: inhibition of BTC binding to ErbB4; y axis MSD units, x axis Antibody concentration (pM); blocked partner ErbB4

B1: NVS1 (Fab, V domains shown)
VH: QVQLVQSGAEVKKPGSSVKVSCKASGGTFSSYAISWVRQAPGQGLEWMGGIVPWMGEAVYAQKFQGRVTITADESTSTAYMELSSLRSEDTAVYYCARSSSTYGIHAFDYWGQGTLVTVSS
VL: DIQMTQSPSSLSASVGDRVTITCRASQSISNFLNWYQQKPGKAPKLLIYAASNLQSGVPSRFSGSGSGTDFTLTISSLQPEDFATYYCQQYDDFPMTFGQGTKVEIKR
notes: also called Fab NVS1; NVS1 Fab
[1]
  IC50: 0.301 nM
[2]
  binding result: no binding (tested: 20000 pM)
[3]
  IC50: 0.591 nM
